Assay results as given in US20260085106A1 (AUTOLUS, published 2026).

Molecular target: T1, caffeine dAb
T1 construct: Llama-derived
Assay: peptide phage display panning on the anti-caffeine sdAb, method of Example 6

T1 sequence (VHH, as listed by the source): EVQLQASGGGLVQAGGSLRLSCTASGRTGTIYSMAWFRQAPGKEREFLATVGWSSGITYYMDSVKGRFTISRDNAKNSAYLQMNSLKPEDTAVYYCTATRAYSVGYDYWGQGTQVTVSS

binding result	Binder
binds	HTLNKPP (also called HTLNKPP) [SEQ ID NO 12]
binds	HDSPTAA (also called HDSPTAA) [SEQ ID NO 14]
binds	ACTYLNSAKC [SEQ ID NO 16]
binds	YPDVPLA (also called YPDVPLA) [SEQ ID NO 15]
binds	DLSIGNH (also called DLSIGNH) [SEQ ID NO 13]
